Results as given in paper PMC5141509, “Identification of protein structural elements responsible for the diversity of sequence preferences among Mini-III RNases”.

T1: BsMiniIII (Bacillus subtilis, UniProt O31418 1-143)
T1 sequence: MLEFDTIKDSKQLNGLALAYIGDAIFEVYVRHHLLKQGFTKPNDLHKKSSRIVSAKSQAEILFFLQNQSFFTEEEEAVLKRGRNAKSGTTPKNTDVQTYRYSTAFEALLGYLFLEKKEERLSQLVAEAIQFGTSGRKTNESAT

B1: NEG (dsRNA)
RNA 1: CCUGUCCCCCGCCGAAGUCGCUGCAAUU
RNA 2: AAUUGCAGCGACUUCGGCGGGGGACAGG
B2: POS-ACCU (dsRNA)
RNA 1: GCUGGGAGGGAAACCUCUCUCUCUGGCC
RNA 2: GGCCAGAGAGAGAGGUUUCCCUCCCAGC

Assays:
[1] = system: Ct(FpH)MiniIII (chimera); assay: filter binding; settings: Enzyme-specific cleavage buffer (Table S1, mostly not in material) with MgCl2 replaced by 1 mM CaCl2; 1.5 nM 33P-dsRNA, 50 ul, 1 h at room temperature …
[2] = system: CtMiniIII; assay: filter binding; settings: Enzyme-specific cleavage buffer (Table S1, mostly not in material) with MgCl2 replaced by 1 mM CaCl2; 1.5 nM 33P-dsRNA, 50 ul, 1 h at room temperature …
[3] = system: SeMiniIII; assay: filter binding; settings: Enzyme-specific cleavage buffer (Table S1, mostly not in material) with MgCl2 replaced by 1 mM CaCl2; 1.5 nM 33P-dsRNA, 50 ul, 1 h at room temperature …
[4] = system: FpMiniIII; assay: filter binding; settings: Enzyme-specific cleavage buffer (Table S1, mostly not in material) with MgCl2 replaced by 1 mM CaCl2; 1.5 nM 33P-dsRNA, 50 ul, 1 h at room temperature …
[5] = system: Ct(FpL)MiniIII (chimera); assay: filter binding; settings: Enzyme-specific cleavage buffer (Table S1, mostly not in material) with MgCl2 replaced by 1 mM CaCl2; 1.5 nM 33P-dsRNA, 50 ul, 1 h at room temperature …
[6] = system: Ct(FpHL)MiniIII (chimera); assay: filter binding; settings: Enzyme-specific cleavage buffer (Table S1, mostly not in material) with MgCl2 replaced by 1 mM CaCl2; 1.5 nM 33P-dsRNA, 50 ul, 1 h at room temperature …
[7] = target: T1, BsMiniIII; assay: filter binding; 1 mM Ca2+ (no Mg2+); Enzyme-specific cleavage buffer (Table S1, mostly not in material) with MgCl2 replaced by 1 mM CaCl2; 1.5 nM 33P-dsRNA, 50 ul, 1 h at room temperature; nitrocellulose filter; one-site fit; settings: protein: recombinant; tags: N-terminal His6 (pET28a, NdeI/XhoI); chain copies: 2; label: 33P 5' end label; blunt

Row | Molecule | Kd [1] [µM] | Kd [2] [µM] | Kd [3] [µM] | Kd [4] [µM] | Kd [5] [µM] | Kd [6] [µM] | Kd [7] [µM]
1 | GCUGGGAGGGAAACCUCUCUCUCUGGCC / GGCCAGAGAGAGAGGUUUCCCUCCCAGC [POS-ACCU] | 2.62 | 1.14 | 0.16 | > 100 | 1.33 | 2.17 | 
2 | CCUGUCCCCCGCCGAAGUCGCUGCAAUU / AAUUGCAGCGACUUCGGCGGGGGACAGG [NEG] | 1.94 | 1.34 | 0.19 | 19.9 | 1.8 | 2.25 | 
3 | B1 |  |  |  |  |  |  | 0.07 ± 0.01
4 | B2 |  |  |  |  |  |  | 0.14 ± 0.02
